For the assay, the target named is rhBMP-2 (R&D Systems, Item number 355-BM/CF) (human) (UniProt P12643). Kind of assay: retention test: peptide-free EDC/NHS crosslinked collagen disc loaded with 40 micrograms rhBMP-2, spun, unbound rhBMP-2 in supernatant by ELISA; control for the affinity biomatrix. A general note: ELISA stands for enzyme-linked immunosorbent assay.
rhBMP-2 (R&D Systems, Item number 355-BM/CF) (human), sequence (P12643 283-396 limits assumed): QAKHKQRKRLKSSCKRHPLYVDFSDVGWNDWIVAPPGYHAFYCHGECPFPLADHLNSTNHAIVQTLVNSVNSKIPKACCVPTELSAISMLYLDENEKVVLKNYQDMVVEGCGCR

Turning to “affinity peptide-free EDC/NHS crosslinked collagen disc (6 mm diameter)”, the % rhBMP-2 incorporation came out at 40 % by weight.

The record behind these values is patent US20110230406A1.
